Assay results reported in publication PMC3743950.
Blank lines part the entries; values can stand above or below the substance they belong to.

Experiments:
[1] = biological target: TtP5CDHR100A (Thermus thermophilus HB27); experiment: SAXS + other: DLS
[2] = biological target: TtP5CDHR111A (Thermus thermophilus HB27); experiment: SAXS + other: DLS
[3] = biological target: Δ1-pyrroline-5-carboxylate dehydrogenase from Thermus thermophilus (Thermus thermophilus HB27); experiment: SAXS + other: DLS
[4] = biological target: Δ1-pyrroline-5-carboxylate dehydrogenase from Bacillus halodurans (Bacillus halodurans); experiment: SAXS + other: DLS
[5] = biological target: TtP5CDHR153A (Thermus thermophilus HB27); experiment: DLS
[6] = biological target: DrP5CDHR102A (Deinococcus radiodurans); experiment: SAXS + other: DLS
[7] = biological target: TtP5CDHK104A (Thermus thermophilus HB27); experiment: DLS
[8] = biological target: TtP5CDHR100A/K104A/R111A (Thermus thermophilus HB27); experiment: DLS
[9] = biological target: Δ1-pyrroline-5-carboxylate dehydrogenase from Deinococcus radiodurans (Deinococcus radiodurans); experiment: SAXS + other: DLS
[10] = biological target: Δ1-pyrroline-5-carboxylate dehydrogenase from Bacillus licheniformis (Bacillus licheniformis); experiment: DLS

Substance: Δ1-pyrroline-5-carboxylate dehydrogenase from Thermus thermophilus (enzyme)
stoichiometry N [3]: 6

Substance: Δ1-pyrroline-5-carboxylate dehydrogenase from Bacillus halodurans (enzyme)
stoichiometry N [4]: 2

Substance: TtP5CDHK104A (enzyme)
stoichiometry N [7]: 6

Substance: TtP5CDHR100A/K104A/R111A (enzyme)
stoichiometry N [8]: 2

Substance: Δ1-pyrroline-5-carboxylate dehydrogenase from Deinococcus radiodurans (enzyme)
stoichiometry N [9]: 6

Substance: Δ1-pyrroline-5-carboxylate dehydrogenase from Bacillus licheniformis (enzyme)
stoichiometry N [10]: 2

Continued, values first:

stoichiometry N [1]: 2
Substance: TtP5CDHR100A (enzyme)

stoichiometry N [2]: 6
Substance: TtP5CDHR111A (enzyme)

stoichiometry N [5]: 6
Substance: TtP5CDHR153A (enzyme)

stoichiometry N [6]: 2
Substance: DrP5CDHR102A (enzyme)
